The text below walks through data of patent publication US20120052569.

Data set [1] addresses His-eTEV-Fn fusion protein (wild type), P02751.
The target of data set [2] is His-eTEV-Fn fusion protein, Ala mutant D10, P02751.
The target in data set [3] is His-eTEV-Fn fusion protein, Ala mutant E2, P02751.
Data set [4] has as its target His-eTEV-Fn fusion protein, Ala mutant F6, P02751.
The target in data set [5] is His-eTEV-Fn fusion protein, Ala mutant G11, P02751.
Data set [6] has as its target His-eTEV-Fn fusion protein, Ala mutant G8, P02751.
For data set [7], the target named is His-eTEV-Fn fusion protein, Ala mutant K9, P02751.
Sequence of His-eTEV-Fn fusion protein, Ala mutant K9, P02751 (P02751 whole entry, looked up, change not shown, the tested form may be a part): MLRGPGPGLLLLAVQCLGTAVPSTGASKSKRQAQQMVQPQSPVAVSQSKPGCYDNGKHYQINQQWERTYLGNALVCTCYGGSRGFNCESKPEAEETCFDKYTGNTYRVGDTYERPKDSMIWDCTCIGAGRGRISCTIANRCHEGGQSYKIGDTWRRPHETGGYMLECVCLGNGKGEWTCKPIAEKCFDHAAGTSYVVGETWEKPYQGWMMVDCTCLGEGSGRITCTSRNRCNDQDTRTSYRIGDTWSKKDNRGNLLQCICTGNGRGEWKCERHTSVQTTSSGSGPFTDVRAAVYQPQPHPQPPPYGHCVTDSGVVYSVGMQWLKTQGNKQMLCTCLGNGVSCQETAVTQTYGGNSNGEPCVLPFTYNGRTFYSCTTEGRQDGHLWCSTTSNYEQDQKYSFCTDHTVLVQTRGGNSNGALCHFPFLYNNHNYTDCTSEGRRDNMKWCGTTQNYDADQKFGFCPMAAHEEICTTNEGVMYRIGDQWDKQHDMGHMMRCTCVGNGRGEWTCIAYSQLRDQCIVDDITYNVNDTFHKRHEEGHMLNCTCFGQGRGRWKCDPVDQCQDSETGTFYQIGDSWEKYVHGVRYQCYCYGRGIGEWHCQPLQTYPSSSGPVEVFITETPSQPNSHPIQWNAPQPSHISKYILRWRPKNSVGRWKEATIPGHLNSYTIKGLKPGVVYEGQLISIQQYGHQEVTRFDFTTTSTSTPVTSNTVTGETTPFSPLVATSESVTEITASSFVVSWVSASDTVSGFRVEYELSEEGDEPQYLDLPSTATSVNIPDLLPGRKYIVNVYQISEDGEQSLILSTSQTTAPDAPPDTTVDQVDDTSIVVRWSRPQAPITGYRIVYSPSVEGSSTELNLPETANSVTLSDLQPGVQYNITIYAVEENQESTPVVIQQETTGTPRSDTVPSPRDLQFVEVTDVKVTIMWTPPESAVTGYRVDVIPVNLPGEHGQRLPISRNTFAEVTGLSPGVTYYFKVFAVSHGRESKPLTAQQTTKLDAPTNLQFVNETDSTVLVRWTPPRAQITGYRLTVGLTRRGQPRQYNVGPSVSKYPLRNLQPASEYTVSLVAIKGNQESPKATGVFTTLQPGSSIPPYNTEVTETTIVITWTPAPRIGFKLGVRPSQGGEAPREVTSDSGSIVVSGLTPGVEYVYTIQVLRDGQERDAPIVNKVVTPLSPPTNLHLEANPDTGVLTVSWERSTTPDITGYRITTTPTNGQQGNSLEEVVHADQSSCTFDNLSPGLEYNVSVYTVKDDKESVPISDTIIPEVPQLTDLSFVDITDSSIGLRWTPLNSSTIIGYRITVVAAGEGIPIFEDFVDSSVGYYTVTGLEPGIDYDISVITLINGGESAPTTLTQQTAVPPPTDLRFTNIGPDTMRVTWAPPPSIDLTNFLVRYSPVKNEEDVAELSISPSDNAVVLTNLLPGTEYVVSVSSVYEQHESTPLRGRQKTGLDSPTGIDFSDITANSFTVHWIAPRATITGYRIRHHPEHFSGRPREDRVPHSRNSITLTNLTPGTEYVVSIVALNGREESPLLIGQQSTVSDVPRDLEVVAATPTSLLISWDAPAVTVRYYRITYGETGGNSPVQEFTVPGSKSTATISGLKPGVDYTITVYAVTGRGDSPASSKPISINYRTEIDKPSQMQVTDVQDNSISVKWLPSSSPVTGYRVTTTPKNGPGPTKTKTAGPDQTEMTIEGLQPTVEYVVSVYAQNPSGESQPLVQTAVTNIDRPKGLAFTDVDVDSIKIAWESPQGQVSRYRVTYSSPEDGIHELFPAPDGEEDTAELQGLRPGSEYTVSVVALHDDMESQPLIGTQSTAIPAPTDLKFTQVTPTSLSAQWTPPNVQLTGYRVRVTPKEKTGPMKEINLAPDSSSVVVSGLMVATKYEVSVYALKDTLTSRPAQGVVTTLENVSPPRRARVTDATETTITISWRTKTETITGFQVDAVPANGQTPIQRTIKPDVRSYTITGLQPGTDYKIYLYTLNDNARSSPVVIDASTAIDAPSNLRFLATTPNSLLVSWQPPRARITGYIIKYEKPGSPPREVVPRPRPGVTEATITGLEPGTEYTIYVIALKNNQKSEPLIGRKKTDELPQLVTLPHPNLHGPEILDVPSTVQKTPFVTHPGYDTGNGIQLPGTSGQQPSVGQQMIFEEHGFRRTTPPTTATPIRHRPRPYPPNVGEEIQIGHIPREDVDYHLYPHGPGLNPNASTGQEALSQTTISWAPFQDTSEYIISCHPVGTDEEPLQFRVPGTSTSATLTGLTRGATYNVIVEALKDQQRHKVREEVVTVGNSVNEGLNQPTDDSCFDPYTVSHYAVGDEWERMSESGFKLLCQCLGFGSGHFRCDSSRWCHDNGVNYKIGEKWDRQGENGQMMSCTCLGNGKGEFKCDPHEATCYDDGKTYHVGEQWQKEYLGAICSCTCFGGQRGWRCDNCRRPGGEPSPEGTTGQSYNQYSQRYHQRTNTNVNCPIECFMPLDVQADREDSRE
Data set [8] concerns the target His-eTEV-Fn fusion protein, Ala mutant L4, P02751.
Data set [9] concerns the target His-eTEV-Fn fusion protein, Ala mutant M0, P02751.
The target of data set [10] is His-eTEV-Fn fusion protein, Ala mutant N3, P02751.
Sequence of His-eTEV-Fn fusion protein, Ala mutant N3, P02751 (P02751 whole entry, looked up, change not shown, the tested form may be a part): as above
Data set [11] concerns the target His-eTEV-Fn fusion protein, Ala mutant Q7, P02751.
Data set [12] addresses His-eTEV-Fn fusion protein, Ala mutant R1, P02751.
Data set [13] has as its target His-eTEV-Fn fusion protein, Ala mutant Y5, P02751.
The target of another data set is T1, W tag fused GFPUV.
T1 chain: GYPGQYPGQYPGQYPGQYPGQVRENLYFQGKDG

Sequence of His-eTEV-Fn fusion protein (wild type), P02751 (P02751 other isoform, or with tags, fused parts or gaps): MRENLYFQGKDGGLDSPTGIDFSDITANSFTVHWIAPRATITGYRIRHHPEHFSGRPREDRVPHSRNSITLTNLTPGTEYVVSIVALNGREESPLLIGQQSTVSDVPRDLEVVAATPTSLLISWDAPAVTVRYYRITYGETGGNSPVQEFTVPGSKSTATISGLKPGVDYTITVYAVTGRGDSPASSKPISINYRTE
Sequence of His-eTEV-Fn fusion protein, Ala mutant F6, P02751 (P02751 whole entry, looked up, change not shown, the tested form may be a part): as the sequence (P02751 whole entry, looked up, change not shown, the tested form may be a part) above
Sequence of His-eTEV-Fn fusion protein, Ala mutant Q7, P02751 (P02751 whole entry, looked up, change not shown, the tested form may be a part): as above
Sequence of His-eTEV-Fn fusion protein, Ala mutant E2, P02751 (P02751 whole entry, looked up, change not shown, the tested form may be a part): as above
Sequence of His-eTEV-Fn fusion protein, Ala mutant D10, P02751 (P02751 whole entry, looked up, change not shown, the tested form may be a part): as above
Sequence of His-eTEV-Fn fusion protein, Ala mutant G11, P02751 (P02751 whole entry, looked up, change not shown, the tested form may be a part): as above
Sequence of His-eTEV-Fn fusion protein, Ala mutant R1, P02751 (P02751 whole entry, looked up, change not shown, the tested form may be a part): as above
Sequence of His-eTEV-Fn fusion protein, Ala mutant M0, P02751 (P02751 whole entry, looked up, change not shown, the tested form may be a part): as above
Sequence of His-eTEV-Fn fusion protein, Ala mutant Y5, P02751 (P02751 whole entry, looked up, change not shown, the tested form may be a part): as above
Sequence of His-eTEV-Fn fusion protein, Ala mutant L4, P02751 (P02751 whole entry, looked up, change not shown, the tested form may be a part): as above
Sequence of His-eTEV-Fn fusion protein, Ala mutant G8, P02751 (P02751 whole entry, looked up, change not shown, the tested form may be a part): as above

B1: Tobacco etch virus (TEV) protease (protein)
chain: GESLFKGPRDYNPISSTICHLTNESDGHTTSLYGIGFGPFIITNKHLFRRNNGTLLVQSLHGVFKVKNTTTLQQHLIDGRDMIIIRMPKDFPPFPQKLKFREPQREERICLVTTNFQTKSMSSMVSDTSCTFPSSDGIFWKHWIQTKDGQCGSPLVSTRDGFIVGIHSASNFTNTNNYFTSVPKNFMELLTNQEAQQWVSGWRLNADSVLWGGHKVFMSKPEEPFQPVKEATQLMNELVYSQ
With B1, the “cleavage by TEV protease (SDS electrophoresis, 24 kDa to 20 kDa shift)” value in [1] was “The eTEV peptide is recognized and cleaved by TEV protease”; in [2], “the other residues are substitutable with Ala”; in data set [3] it was “substitution of Ala for Glu at residue 2 gives no significant change in cleavage”; in [4] it was “the other residues are substitutable with Ala”; in [5], “the other residues are substitutable with Ala”; in [6] it was “the other residues are substitutable with Ala”. The “cleavage by TEV protease (SDS electrophoresis, 24 kDa to 20 kDa shift)” value is “the other residues are substitutable with Ala” in [7]; “the 4th, 5th and 7th amino acids (namely, Leu, Tyr and Gln) are essential for the substrate of TEV protease” in data set [8]; “the other residues are substitutable with Ala” in data set [9]; “the other residues are substitutable with Ala” in [10]; “the 4th, 5th and 7th amino acids (namely, Leu, Tyr and Gln) are essential for the substrate of TEV protease” in data set [11]; “the other residues are substitutable with Ala” in data set [12]. Moreover, the “cleavage by TEV protease (SDS electrophoresis, 24 kDa to 20 kDa shift)” value in [13] is “the 4th, 5th and 7th amino acids (namely, Leu, Tyr and Gln) are essential for the substrate of TEV protease”. Moreover, the “cleavage by TEV protease” value in the data set with W tag fused Fn, P02751 is given as “the above-mentioned W tag fusion proteins, like single tag fusion proteins, can be used ... for cleavage by TEV protease”; with W tag fused GFPUV, “the above-mentioned W tag fusion proteins, like single tag fusion proteins, can be used ... for cleavage by TEV protease”.
